# Patent publication US20250122303A1, “TREATMENT AND PREVENTION OF CANCER USING HER3 ANTIGEN-BINDING MOLECULES” (Hummingbird Bioscience Pte. Ltd., priority 2021, published 2025)
# B1: 10D1_c89: clone 10D1F comprises VH of SEQ ID NO:36 and VL of SEQ ID NO:83 (antibody, V domains shown)
# VH: QVQLQESGPGLVKPSQTLSLTCTVSGYSITSGYSWHWIRQHPGKGLEWIGSIRYSGGTDYNPSLKSLVTISADTSKNQFSLKLSSVTAADTAVYYCARMTTAPWYPFDYWGQGTTVTVSS
# VL: DIQMTQSPSSVSASVGDRVTITCKASQIVGSNVAWYQQKPGKAPEPLIYSASYLYSGVPSRFSGSGSGTDFTLTISSLQPEDFATYYCQQYSSHPLTFGQGTKLEIK
# B2: MM-121: anti-HER3 antibody blocking binding of heregulin (NRG) to HER3 (antibody, chains of the INN, looked up)
# heavy: EVQLLESGGGLVQPGGSLRLSCAASGFTFSHYVMAWVRQAPGKGLEWVSSISSSGGWTLYADSVKGRFTISRDNSKNTLYLQMNSLRAEDTAVYYCTRGLKMATIFDYWGQGTLVTVSSASTKGPSVFPLAPCSRSTSESTAALGCLVKDYFPEPVTVSWNSGALTSGVHTFPAVLQSSGLYSLSSVVTVPSSNFGTQTYTCNVDHKPSNTKVDKTVERKCCVECPPCPAPPVAGPSVFLFPPKPKDTLMISRTPEVTCVVVDVSHEDPEVQFNWYVDGVEVHNAKTKPREEQFNSTFRVVSVLTVVHQDWLNGKEYKCKVSNKGLPAPIEKTISKTKGQPREPQVYTLPPSREEMTKNQVSLTCLVKGFYPSDIAVEWESNGQPENNYKTTPPMLDSDGSFFLYSKLTVDKSRWQQGNVFSCSVMHEALHNHYTQKSLSLSPG
# light: QSALTQPASVSGSPGQSITISCTGTSSDVGSYNVVSWYQQHPGKAPKLIIYEVSQRPSGVSNRFSGSKSGNTASLTISGLQTEDEADYYCCSYAGSSIFVIFGGGTKVTVLGQPKAAPSVTLFPPSSEELQANKATLVCLVSDFYPGAVTVAWKADGSPVKVGVETTKPSKQSNNKYAASSYLSLTPEQWKSHRSYSCRVTHEGSTVEKTVAPAECS
# B3: 4-35-B2: anti-HER3 antibody clone, VH SEQ ID NO:127, VL SEQ ID NO:135 (antibody, V domains shown)
# VH: EIQLQQSGPELVKPGASVKVSCKASGYSFTDYNMYWVKQSHGKSLEWIGHINPYNGGTTYNQKFKGRATLTVDKSSSTAFMHLNSLTSEDSAVYFCVSLRWGAMDYWGQGTSVTVSS
# VL: QIVLTQSPALMSASPGEKVTMTCSASSSVSYMYWYQQKPRSSPKPWIYLTSNLASGVPARFSGSGSGTSYSLTISSMEAEDAATYYCQQWNSNPYTFGGGTKLEIK
# How the values were obtained:
# [1] = target: T1, human HER3 (Homo sapiens, UniProt P21860); test: Global affinity study, Bio-Layer Interferometry (Octet QK384); type: binding; conditions: BLI, His-tagged human HER3, IgG1 format, 25° C.; read-out: Affinity (KD)
# Procedure: The anti-HER3 antibody clones in IgG1 format were analysed for binding affinity to human HER3. Bio-Layer Interferometry (BLI) experiments were performed using the Octet QK384 system (ForteBio). anti-Human IgG Capture (AHC) Octet sensor tips (Pall ForteBio, USA) were used to anti-HER3 antibodies (25 nM). All measurements were performed at 25° C. with agitation at 1000 rpm. Kinetic measurements for antigen binding were performed by loading His-tagged human HER3 antigens at different concentrations for 120 s, followed by a 120 s dissociation time by transferring the biosensors into assay buffer containing wells. Sensograms were referenced for buffer effects and then fitted using the Octet QK384 user software (Pall ForteBio, USA). Kinetic responses were subjected to a global fitting using a one site binding model to obtain values for association (Kon), dissociation (Koff) rate constants and the equilibrium dissociation constant (KD). Only curves that could be reliably fitted with the software (R^2>0.90) were included in the analysis.
# Bio-Layer Interferometry (BLI) experiments were performed using the Octet QK384 system (ForteBio). […] Binding was detected using titrated HIS-tagged human HER3 in steps of baseline (60 s), loading (120 s), baseline2 (60 s), association (120 s), dissociation (FcA 120 s, FcB 600 s) and regeneration (15 s). Sensorgrams were analysed as described in Example 3.3. […]
# [2] = target: human HER3:human NRG1 complex (Homo sapiens, UniProt P21860); test: BLI binding to HER3-NRG1 complex ('open' conformation); conditions: presence of NRG1 (1:1 molar ratio)
# Procedure: (§1) In further experiments, anti-HER3 antibodies were analysed in order to determine the affinity of binding to human HER3 in the context of a human HER3:human NRG1 complex (that is, HER3 provided in the ligand-bound, ‘open’ conformation), as compared to the affinity of binding to human HER3 in the absence of NRG1 complex (that is, HER3 provided in the unbound, ‘closed’ conformation).
# (§2) Binding of anti-HER3 antibodies to human HER3 was evaluated by BLI. Briefly, anti-Human IgG Capture (AHC) sensors (ForteBio) were loaded with anti-HER3 IgG antibodies (25 nM). Kinetic measurements were performed in absence or presence of NRG1. NRG1 was used at 1:1 molar ratio with HER3 wherein the complex was allowed to form at RT for 2 h. His-tagged human HER3 or HER3-NRG1 complexes were loaded to antibody coated AHC sensors at different concentrations for 120 s, followed by a 120 s dissociation time. All measurements were performed at 25° C. with agitation at 1000 rpm. Sensorgrams were referenced for buffer effects and then analyzed using the Octet QK384-software (ForteBio). Kinetic responses were globally fitted using a one-site binding model to obtain values for association (Kon), dissociation (Koff) rate constants and the equilibrium dissociation constant (KD).
# [3] = target: T1, human HER3; test: BLI binding to HER3 in absence of NRG1 ('closed' conformation)
# Procedure: as §1, §2
# [4] = target: T1, human HER3; test: Immunohistochemistry on frozen human tissue arrays; parameters: Arrays of commercially-available frozen tissue sections were obtained; from tissue; host or cells: frozen human normal and malignant tissue section arrays; conditions: mIgG2a format
# Procedure: Anti-HER3 antibody 10D1F in mIgG2a format was evaluated for its ability to be used in immunohistochemistry for the detection of human HER3 protein.
# Processing of sections was performed using Bond reagents (Leica Biosystems). Arrays of commercially-available frozen tissue sections were obtained. Slides were dried in a desiccator for 10 min and then subjected to the following treatments, with water washes and/or TBS-T rinses between steps: (i) fixation by treatment with 100% acetone for 10 min at room temperature; (ii) endogenous peroxidase blocking by treatment with 3% (v/v) H2O2 for 15 min at room temperature; (iii) blocking by treatment with 10% goat serum for 30 min at room temperature, (iv) incubation with 10D1 F-mIgG2a at 1:250 dilution of a 6.2 mg/ml solution overnight at 4° C., (v) incubation with HRP-polymer conjugated goat anti-mouse antibody for 30 min at room temperature, and (vi) development with Bond Mixed DAB Refine for 5 min at room temperature, followed by rinsing with deionised water and 1× Bond Wash to stop the reaction.
# Slides were then dehydrated, mounted in synthetic mounting media and scanned with high resolution.
# [5] = clinical, literature, cited from earlier work
# [6] = test system: cynomolgus macaque HER3; test: ELISA cross-reactivity, cynomolgus macaque HER3; type: binding
# Procedure: (§3) ELISAs were used to determine the binding specificity of the antibodies. The antibodies were analysed for binding to human HER3 polypeptide, as well as respective mouse, rat and monkey homologues of HER3 (Sino Biological Inc., China). The antibodies were also analysed for their ability to bind to human EGFR and human HER2 (Sino Biological Inc., China).
# (§4) ELISAs were carried out according to standard protocols. Briefly, 96-well plates (Nunc, Denmark) were coated with 0.1 μg/ml of target polypeptide in phosphate-buffered saline (PBS) for 16 h at 4° C. After blocking for 1 h with 1% BSA in Tris buffer saline (TBS) at room temperature, the anti-HER3 antibody was serially diluted with the highest concentration being 10 μg/ml, and added to the plate. Post 1 h incubation at room temperature, plates were washed three times with TBS containing 0.05% Tween 20 (TBS-T) and were then incubated with a HRP-conjugated anti-His antibody (Life Technologies, Inc., USA) for 1 h at room temperature. After washing, plates were developed with colorimetric detection substrate 3,3′,5,5′-tetramethylbenzidine (Turbo-TMB; Pierce, USA) for 10 min. The reaction was stopped with 2M H2SO4, and OD was measured at 450 nm. […]
# [7] = test system: A549 cell-line derived mouse model of lung adenocarcinoma; test: A549 cell-line derived xenograft model; type: in vivo; conditions: A549, NPG mice, IP weekly 500 μg, 4 doses
# [8] = target: T2, rat HER3 (Rattus norvegicus, UniProt Q62799); test: ELISA cross-reactivity, rat HER3; type: binding
# T2 construct: purchased Sino Biological Inc., China
# Procedure: as §3, §4
# [9] = target: T3, mouse HER3 (Mus musculus, UniProt Q61526); test: ELISA cross-reactivity, mouse HER3; type: binding
# T3 construct: purchased Sino Biological Inc., China
# Procedure: as §3, §4
# [10] = target: T4, human HER2 (Homo sapiens, UniProt P04626); test: ELISA specificity, human HER2; type: binding; conditions: antibody up to 10 μg/ml
# T4 construct: purchased Sino Biological Inc., China
# Procedure: as §3
# (§5) ELISAs were carried out according to standard protocols. Briefly, 96-well plates (Nunc, Denmark) were coated with 0.1 μg/ml of target polypeptide in phosphate-buffered saline (PBS) for 16 h at 4° C. After blocking for 1 h with 1% BSA in Tris buffer saline (TBS) at room temperature, the anti-HER3 antibody was serially diluted with the highest concentration being 10 μg/ml, and added to the plate. Post 1 h incubation at room temperature, plates were washed three times with TBS containing 0.05% Tween 20 (TBS-T) and were then incubated with a HRP-conjugated anti-His antibody (Life Technologies, Inc., USA) for 1 h at room temperature. […] The reaction was stopped with 2M H2SO4, and OD was measured at 450 nm.
# (§6) The antibodies were analysed for their ability to bind to human HER3 polypeptide as well as human HER1 (EGFR) and human HER2 (Sino Biological Inc., China). […]
# (§7) ELISAs were carried out according to standard protocols. […] The reaction was stopped with 2M H2SO4, and OD was measured at 450 nm.
# [11] = target: T5, human EGFR (Homo sapiens, UniProt P00533); test: ELISA specificity, human EGFR; type: binding; conditions: antibody up to 10 μg/ml
# T5 construct: purchased Sino Biological Inc., China
# Procedure: as §3, §5, §6, §7
# T3 sequence (Q61526 20-1339): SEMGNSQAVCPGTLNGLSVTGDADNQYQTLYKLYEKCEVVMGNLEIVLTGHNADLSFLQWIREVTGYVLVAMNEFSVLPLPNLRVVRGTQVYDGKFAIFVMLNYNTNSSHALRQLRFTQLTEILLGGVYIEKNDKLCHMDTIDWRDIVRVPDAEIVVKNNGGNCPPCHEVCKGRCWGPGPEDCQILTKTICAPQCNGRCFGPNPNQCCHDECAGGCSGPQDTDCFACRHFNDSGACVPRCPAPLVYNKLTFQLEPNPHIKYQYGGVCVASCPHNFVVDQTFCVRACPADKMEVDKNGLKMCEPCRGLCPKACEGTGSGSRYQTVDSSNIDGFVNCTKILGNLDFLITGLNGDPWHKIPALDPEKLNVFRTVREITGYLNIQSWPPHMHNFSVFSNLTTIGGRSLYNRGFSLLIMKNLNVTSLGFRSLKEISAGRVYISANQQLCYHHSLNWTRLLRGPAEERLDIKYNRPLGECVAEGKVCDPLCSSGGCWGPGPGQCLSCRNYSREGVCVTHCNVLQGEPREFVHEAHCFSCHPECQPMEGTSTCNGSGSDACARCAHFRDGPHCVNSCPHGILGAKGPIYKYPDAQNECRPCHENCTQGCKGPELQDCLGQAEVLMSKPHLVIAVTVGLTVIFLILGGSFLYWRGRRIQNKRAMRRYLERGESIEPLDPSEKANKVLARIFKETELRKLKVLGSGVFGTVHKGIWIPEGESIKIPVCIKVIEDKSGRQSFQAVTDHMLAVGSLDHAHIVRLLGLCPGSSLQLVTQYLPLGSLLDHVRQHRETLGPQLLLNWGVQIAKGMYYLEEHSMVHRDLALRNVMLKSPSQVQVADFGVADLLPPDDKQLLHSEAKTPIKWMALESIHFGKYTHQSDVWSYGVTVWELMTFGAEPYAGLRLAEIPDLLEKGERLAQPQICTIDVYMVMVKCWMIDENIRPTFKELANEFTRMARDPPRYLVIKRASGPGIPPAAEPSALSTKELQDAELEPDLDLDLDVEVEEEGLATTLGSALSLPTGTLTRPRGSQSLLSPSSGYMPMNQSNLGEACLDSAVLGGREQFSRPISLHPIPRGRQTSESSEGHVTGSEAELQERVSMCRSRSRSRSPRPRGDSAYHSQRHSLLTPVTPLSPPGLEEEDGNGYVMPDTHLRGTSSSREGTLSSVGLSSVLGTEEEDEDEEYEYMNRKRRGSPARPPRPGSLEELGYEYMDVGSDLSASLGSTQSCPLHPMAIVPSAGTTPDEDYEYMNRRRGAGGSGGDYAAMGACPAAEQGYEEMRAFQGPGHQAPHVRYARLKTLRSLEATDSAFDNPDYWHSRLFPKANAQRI
# T2 sequence (Q62799 20-1339): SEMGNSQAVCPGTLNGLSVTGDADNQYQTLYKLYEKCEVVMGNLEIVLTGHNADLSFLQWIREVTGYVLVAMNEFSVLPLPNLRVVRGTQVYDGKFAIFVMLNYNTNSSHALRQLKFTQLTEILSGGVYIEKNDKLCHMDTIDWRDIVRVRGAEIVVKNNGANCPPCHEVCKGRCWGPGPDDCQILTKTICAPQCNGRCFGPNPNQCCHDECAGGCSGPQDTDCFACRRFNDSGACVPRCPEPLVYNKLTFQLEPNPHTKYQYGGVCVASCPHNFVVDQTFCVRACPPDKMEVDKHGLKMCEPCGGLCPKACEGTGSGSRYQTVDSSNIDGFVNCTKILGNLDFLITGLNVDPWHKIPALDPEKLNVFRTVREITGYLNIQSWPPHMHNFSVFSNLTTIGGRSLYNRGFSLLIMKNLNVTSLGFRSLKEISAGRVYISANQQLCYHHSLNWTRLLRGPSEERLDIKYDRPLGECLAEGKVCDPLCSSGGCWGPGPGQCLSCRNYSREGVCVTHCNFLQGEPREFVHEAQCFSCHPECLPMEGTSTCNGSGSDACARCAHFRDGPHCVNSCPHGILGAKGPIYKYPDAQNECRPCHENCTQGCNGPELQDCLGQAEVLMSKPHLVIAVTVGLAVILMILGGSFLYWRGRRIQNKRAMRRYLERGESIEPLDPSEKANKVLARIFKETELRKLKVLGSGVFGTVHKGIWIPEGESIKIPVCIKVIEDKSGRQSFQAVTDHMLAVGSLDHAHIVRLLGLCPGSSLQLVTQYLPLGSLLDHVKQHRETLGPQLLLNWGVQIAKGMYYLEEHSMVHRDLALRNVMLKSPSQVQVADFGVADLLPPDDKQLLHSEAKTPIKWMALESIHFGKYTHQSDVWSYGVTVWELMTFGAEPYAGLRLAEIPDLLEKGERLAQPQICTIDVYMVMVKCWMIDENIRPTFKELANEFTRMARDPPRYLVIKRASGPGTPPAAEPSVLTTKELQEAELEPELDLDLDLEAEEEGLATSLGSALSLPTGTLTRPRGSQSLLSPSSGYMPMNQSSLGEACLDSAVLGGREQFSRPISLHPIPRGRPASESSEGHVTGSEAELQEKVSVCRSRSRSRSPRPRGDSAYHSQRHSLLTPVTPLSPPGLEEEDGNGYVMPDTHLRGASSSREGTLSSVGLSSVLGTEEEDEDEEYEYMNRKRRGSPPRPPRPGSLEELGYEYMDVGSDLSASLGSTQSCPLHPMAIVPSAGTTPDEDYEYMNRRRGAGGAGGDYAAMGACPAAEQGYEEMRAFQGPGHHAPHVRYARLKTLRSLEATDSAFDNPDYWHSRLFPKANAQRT
molecule,measurement,setting,value
B1,Kd,[1],72.6 pM
same,affinity of binding to human HER3,[2],sub-picomolar affinity
same,affinity of binding to human HER3,[3],sub-picomolar affinity
same,immunohistochemical staining of malignant and normal human tissue,[4],"preferentially stained malignant human tissue sections, with low cross-reactivity to normal tissue"
B2,T½ (terminal half life),[5],10.5 days
same,Cmax (μg/ml) normalised to per mg/kg dosed,[5]; normalised to per mg/kg dosed,24 to 25 µg/mL
B3,binding / cross-reactivity with cynomolgus macaque HER3,[6],substantial cross-reactivity
same,inhibition of tumor growth,[7],~63%
same,binding / cross-reactivity with rat HER3,[8],substantial cross-reactivity
same,binding / cross-reactivity with mouse HER3,[9],substantial cross-reactivity
same,binding to human HER2,[10],found to bind
same,binding to human EGFR (HER1),[11],found to bind
